Experimental data published in article PMC5292422, “NBS-LRR Protein Pik-H4 Interacts with OsBIHD1 to Balance Rice Blast Resistance and Growth by Coordinating Ethylene-Brassinosteroid Pathway”.

B1: OsACO3 promoter TGTCA probe (dsDNA)
DNA 1: AAATTCTGTCATCATCA
DNA 2: TGATGATGACAGAATTT
B2: CYP734A2 promoter TGTCA probe (dsDNA)
DNA 1: TGCATTGTCAGTTAC
DNA 2: GTAACTGACAATGCA

Biological target: T1, OsBIHD1 207-527 (HD domain) (Oryza sativa (rice; Pik-H4 NIL?), UniProt Q6QUW0 207-527)
T1 sequence: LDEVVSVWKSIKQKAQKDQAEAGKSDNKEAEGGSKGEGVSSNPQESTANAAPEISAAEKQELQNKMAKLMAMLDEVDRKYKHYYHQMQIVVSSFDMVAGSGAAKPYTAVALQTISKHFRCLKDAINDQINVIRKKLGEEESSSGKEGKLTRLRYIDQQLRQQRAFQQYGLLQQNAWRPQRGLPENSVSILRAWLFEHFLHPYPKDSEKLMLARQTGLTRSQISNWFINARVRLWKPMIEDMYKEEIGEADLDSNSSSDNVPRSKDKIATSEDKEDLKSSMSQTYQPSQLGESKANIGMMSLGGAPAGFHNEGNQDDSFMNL
Assay: EMSA; EMSA: 25 C, 30 min, binding buffer of Beyotime Chemiluminescent EMSA Kit GS009 (composition, salt and pH not stated); 10% polyacrylamide gel, 0.5x TBE
Conditions: protein: recombinant; tags: His (pET28a); label: biotin 3'

Binder	binding result
B1	binds
B2	binds
